The target in assay [1] is HLA-B27 heterotrimer complexed with the HIV GAG-KK10 L6M escape mutant peptide (human | not stated | HIV). The experiment in a line: SPR.
Assay [2] concerns the target HLA-B27 free heavy chains generated from immobilised heterotrimers (human). Kind of assay: SPR.
The target in the next assay is HLA-A3 heterotrimer. The experiment in a line: SPR.
For assay [3], the target named is HLA-A3 expressed by transfected LBL.721.221 cells (human). The experiment in a line: flow cytometry on cells.
Assay [4] has as its target HLA-B35 expressed by transfected LBL.721.221 cells (human). Kind of assay: flow cytometry on cells.
Assay [5] has as its target c67s mutant of HLA-B*2705 expressed by transfected LBL.721.221 cells (human). Kind of assay: flow cytometry on cells.
Assay [6] has as its target HLA-B*2705 expressed by transfected LBL.721.221 cells (human). Kind of assay: flow cytometry on cells.
The target of assay [7] is HLA-A2 expressed by transfected LBL.721.221 cells (human). The experiment in a line: flow cytometry on cells.

For the substance “LILRB2 incorporating the two immunoglobulin-like domains D1 and D2 (domain or fragment)”, the Kd in assay [1] was 16 µM; in assay [2] it was 2.6 µM; with HLA-A3 heterotrimer it was 25.3 µM.

The substance “LILRB1 incorporating the two immunoglobulin-like domains D1 and D2 (domain or fragment)” showed a Kd in assay [1] of 3.93 µM.

For “Soluble LILRB2Fc incorporating the D1, D2, D3 and D4 domains of LILRB2 (Fc fusion)”, the geometric mean fluorescent intensity worked out at 107 in assay [3]; 81 in assay [4]; 24 in assay [5]; 568 in assay [6]; 233 in assay [7]. The substance also had a geometric mean fluorescent intensity after inhibition with HC10 in assay [6] of 244. Moreover, the geometric mean fluorescent intensity after inhibition with W632 in assay [6] was 161. The geometric mean fluorescent intensity after isotype control MAbs in assay [6] was 489.

(Values after paper PMC3622243.)
